Source: IntAct's records for PubMed 25416956
One block for each substance: values may come before it.

How the values were obtained:
[1] = molecular target: praf1_human RABAC1 (UniProt Q9UI14)
[2] = molecular target: tfp11_human TFIP11 (UniProt Q9UBB9)
[3] = molecular target: reep6_human REEP6 (UniProt Q96HR9)
[4] = molecular target: ldaf1_human LDAF1 (UniProt Q96B96)
[5] = molecular target: tm239_human TMEM239 (UniProt Q8WW34)
[6] = molecular target: ldaf1_human LDAF1 (UniProt Q96B96); remark: listed apart in the source
[7] = molecular target: reep6_human REEP6 (UniProt Q96HR9); remark: listed apart in the source
[8] = molecular target: tm239_human TMEM239 (UniProt Q8WW34); remark: listed apart in the source
[9] = molecular target: tfp11_human TFIP11 (UniProt Q9UBB9); remark: listed apart in the source
[10] = molecular target: praf1_human RABAC1 (UniProt Q9UI14); remark: listed apart in the source
[11] = molecular target: praf1_human RABAC1 (UniProt Q9UI14); remark: listed apart in the source
[12] = molecular target: tm239_human TMEM239 (UniProt Q8WW34); remark: listed apart in the source
[13] = molecular target: atrap_human AGTRAP (UniProt Q6RW13)
[14] = molecular target: reep6_human REEP6 (UniProt Q96HR9); remark: listed apart in the source
[15] = molecular target: ldaf1_human LDAF1 (UniProt Q96B96); remark: listed apart in the source
[16] = molecular target: tfp11_human TFIP11 (UniProt Q9UBB9); remark: listed apart in the source

tfp11_human TFIP11, sequence (Q9UBB9 whole entry): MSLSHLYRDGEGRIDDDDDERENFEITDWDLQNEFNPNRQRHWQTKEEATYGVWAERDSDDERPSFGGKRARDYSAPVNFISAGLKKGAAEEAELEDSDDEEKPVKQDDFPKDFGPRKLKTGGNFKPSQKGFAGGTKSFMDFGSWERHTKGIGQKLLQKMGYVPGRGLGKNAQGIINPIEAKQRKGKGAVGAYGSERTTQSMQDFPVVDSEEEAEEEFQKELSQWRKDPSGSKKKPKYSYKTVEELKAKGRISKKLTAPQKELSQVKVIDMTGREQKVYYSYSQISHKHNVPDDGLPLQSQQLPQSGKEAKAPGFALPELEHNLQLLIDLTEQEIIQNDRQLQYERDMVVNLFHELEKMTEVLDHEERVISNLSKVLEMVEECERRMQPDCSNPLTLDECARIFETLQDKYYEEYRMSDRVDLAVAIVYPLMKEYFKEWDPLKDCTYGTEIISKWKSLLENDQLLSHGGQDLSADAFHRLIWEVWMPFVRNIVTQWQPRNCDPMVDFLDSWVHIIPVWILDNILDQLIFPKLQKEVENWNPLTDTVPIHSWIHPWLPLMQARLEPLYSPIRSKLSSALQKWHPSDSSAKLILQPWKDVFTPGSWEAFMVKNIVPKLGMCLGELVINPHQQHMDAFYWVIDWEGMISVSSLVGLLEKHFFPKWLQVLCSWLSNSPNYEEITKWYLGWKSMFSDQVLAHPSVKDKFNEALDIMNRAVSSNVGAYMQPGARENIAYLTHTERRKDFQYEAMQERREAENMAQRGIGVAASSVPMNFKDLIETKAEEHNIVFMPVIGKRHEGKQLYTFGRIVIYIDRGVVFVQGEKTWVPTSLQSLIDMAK
reep6_human REEP6, sequence (Q96HR9 whole entry): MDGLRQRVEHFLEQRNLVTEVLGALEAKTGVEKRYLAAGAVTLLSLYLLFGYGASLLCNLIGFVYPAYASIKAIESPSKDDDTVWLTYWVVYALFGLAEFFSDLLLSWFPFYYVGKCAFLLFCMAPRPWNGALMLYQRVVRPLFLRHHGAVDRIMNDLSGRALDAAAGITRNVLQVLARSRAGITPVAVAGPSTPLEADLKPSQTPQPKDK
tm239_human TMEM239, sequence (Q8WW34 whole entry): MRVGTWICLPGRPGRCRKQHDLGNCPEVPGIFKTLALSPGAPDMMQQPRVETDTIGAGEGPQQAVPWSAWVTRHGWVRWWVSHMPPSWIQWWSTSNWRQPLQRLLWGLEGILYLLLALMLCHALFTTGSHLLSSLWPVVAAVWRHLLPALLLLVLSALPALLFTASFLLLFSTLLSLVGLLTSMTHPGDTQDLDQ
ldaf1_human LDAF1, sequence (Q96B96 whole entry): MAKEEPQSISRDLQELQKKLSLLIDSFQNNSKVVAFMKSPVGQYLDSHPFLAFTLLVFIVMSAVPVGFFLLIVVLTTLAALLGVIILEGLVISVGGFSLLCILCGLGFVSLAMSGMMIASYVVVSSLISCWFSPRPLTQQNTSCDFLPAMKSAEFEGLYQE
praf1_human RABAC1, sequence (Q9UI14 whole entry): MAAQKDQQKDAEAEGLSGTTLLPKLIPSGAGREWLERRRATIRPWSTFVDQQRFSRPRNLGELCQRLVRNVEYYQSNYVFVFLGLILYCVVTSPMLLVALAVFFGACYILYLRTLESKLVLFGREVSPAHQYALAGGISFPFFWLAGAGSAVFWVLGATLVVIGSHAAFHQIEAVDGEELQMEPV
atrap_human AGTRAP, sequence (Q6RW13 whole entry): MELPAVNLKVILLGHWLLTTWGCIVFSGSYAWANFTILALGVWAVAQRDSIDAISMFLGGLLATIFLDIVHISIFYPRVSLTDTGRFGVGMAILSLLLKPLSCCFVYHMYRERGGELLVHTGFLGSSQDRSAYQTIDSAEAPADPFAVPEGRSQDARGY

effect of a mutation on the interaction [1]: disrupting interaction | effect of a mutation on the interaction [2]: disrupting interaction | effect of a mutation on the interaction [3]: disrupting interaction | effect of a mutation on the interaction [4]: disrupting interaction | effect of a mutation on the interaction [5]: disrupting interaction
Substance: Atypical kinase COQ8A, mitochondrial (Homo sapiens), Q8NI60 E551K

effect of a mutation on the interaction [6]: disrupting interaction | effect of a mutation on the interaction [7]: disrupting interaction | effect of a mutation on the interaction [8]: disrupting interaction | effect of a mutation on the interaction [9]: disrupting interaction | effect of a mutation on the interaction [10]: disrupting interaction
Substance: Atypical kinase COQ8A, mitochondrial (Homo sapiens), Q8NI60 G272V

effect of a mutation on the interaction [11]: disrupting interaction | effect of a mutation on the interaction [12]: disrupting interaction | effect of a mutation on the interaction [13]: disrupting interaction | effect of a mutation on the interaction [14]: disrupting interaction | effect of a mutation on the interaction [15]: disrupting interaction | effect of a mutation on the interaction [16]: disrupting interaction
Substance: Atypical kinase COQ8A, mitochondrial (Homo sapiens), Q8NI60 R213W
